From the nanobody polyreactivity screen of Harvey et al. (2022)

Assay: yeast display, Sf9 membrane polyspecificity reagent, FACS + sequencing; frameworks hold sequencing errors
How it was run: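 A nanobody's polyreactivity label depends on the gate it was sorted from. Yeast display cells were stained with 10% biotinylated, detergent-solubilized Sf9 membrane reagent for 1 hour at 4 °C, enriched on streptavidin microbeads and sorted by FACS. The low and high (top ~1%) gates were set on anti-HA fluorescence for expression and streptavidin fluorescence for reagent binding.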

Row | Sequence | polyreactivity (PSR sort gate)
1 | QVQLVESGGGLVQAGGSLRLSCAASGSIFFDGNAMGWYRQAPGKERELVAAISVSGGSTYYADSVKGRFTISRDNAKNTVYLQMNSLKAEDTAVYYCAKYPSKSYVPGDYWGQGTQVTVSS | low polyreactivity
2 | QVQLVESGGGLVQAGGSLRLSCAASGSIFFENDMGWYRQAPGKEREFVAAISLSSASTYYADSVKGRFTISRDNAKNTVYLQMNSLKPEDTAVYYCAADAIFGWPTFDYWGQGTQVTVSS | low polyreactivity
3 | QVQLVESGGGLVQAGGSLRLSCAASGSIFFGNAMGWYRQAPGKERELVAAIDGTGASTYYADSVKGRFTISRDNAKNTVYLQMNSLKPEDTAVYYCNKALTSKDYPVRTVERDYWGQGTKVTVSS | low polyreactivity
4 | QVQLVESGGGLVQAGGSLRLSCAASGSIFFGYAMGWYRQAPGKERELVAAISTRGGRSYYADSVKGRFTISRDNAKNTVYFQMNSLKPVDTAVYYCNAASLVQAYSHADERYDYWGQGTQVTVSS | high polyreactivity
5 | QVQLVESGGGLVQAGGSLRLSCAASGSIFFGYAMGWYRQAPGKERELVAGISSNGGTTYYADSVKGRFTISRDHANNTVNLQMNSQKPEDTAVYDCATQYYARGYLYDYWGQGTQVTVSS | low polyreactivity
6 | QVQLVESGGGLVQAGGSLRLSCAASGSIFFINAMGWYRQAPGKERELVASISQSGVSTYYADSVKGRFTISRDNAKNTVYLQMNSLKPEDTAVYYCATGPVRRARYVWSYTYYYWGQGTQVTVSS | low polyreactivity
7 | QVQLVESGGGLVQAGGSLRLSCAASGSIFFIYAIGWYRQAPGKQRELVATISSGGSTYYADSVKGRFRISRDIAKNTVYLQMNSLKPEDTAVYYCAADGIVQDGLEWEYDYWGQGTQVTVSS | low polyreactivity
8 | QVQLVESGGGLVQAGGSLRLSCAASGSIFFLYAMGWYRQAPGKERELVAAISLSTGNTYYADSVKGRFTISRDNAKNTVYLQMNSLKPEDSAVYYCAATYVSISYRYDYWGQGTQVTVSS | high polyreactivity
9 | QVQLVESGGGLVQAGGSLRLSCAASGSIFFLYAMGWYRQAPGKERELVAAISVGGGSTYYADSVKGRFTFSRDNAKNTVYLHMNSLKPEDTAVYYCAALSKTRGGYWGQGTQVTVSS | high polyreactivity
10 | QVQLVESGGGLVQAGGSLRLSCAASGSIFFNYAMGWYRKAPGKERELVATITSGGSTYYADSVKGRFTISRDNAKNTVYLQMNSLKPEDTAVYYCAVDEYFAFDYWGQGTQVTVSS | low polyreactivity
11 | QVQLVESGGGLVQAGGSLRLSCAASGSIFFNYAMGWYRQAPGKERELVAAITRSGGSTYYADSVKGRFTISRDNAKNTVYLQMNSLKPEDTAVYYCAARYPFGSLGRYGYWGQGTQVTVSS | high polyreactivity
12 | QVQLVESGGGLVQAGGSLRLSCAASGSIFFPNAMGWYRQAPGKERELVAAIRGGTNTYYADSVKGRFTISRDNAKTTVYLQLNSLKPEDTAVYYCAARRSSHWFTYDYWGQGTQVTVSS | high polyreactivity
13 | QVQLVESGGGLVQAGGSLRLSCAASGSIFFPYAMGWYRQAPGKERELVAAISYSGTSRYYADSVKGRFTISRDNAKNTVYLQMNSLKPEDTAVYYCAAYSRYYASYDYWGQGTQVTVSS | high polyreactivity
14 | QVQLVESGGGLVQAGGSLRLSCAASGSIFFSNAMGWYRQAPGKERELVAGIRSGGITNYADSVKGRFTISRDNAKNTVYLQMNSLKPEDSAVYYCAKLKDHGRYAYAFDYWGQGTQVTVSS | low polyreactivity
15 | QVQLVESGGGLVQAGGSLRLSCAASGSIFFVNDMGWYRQAPGKERELVAAITRDGGTNYADSVKGRFTISRDNAKNTVYLQMNSLKPEDTAVYYCAKESGSVLSLYDYWGQGTQVTVSS | low polyreactivity
16 | QVQLVESGGGLVQAGGSLRLSCAASGSIFFVYDMGWYRQAPGKERELVAAITWSGGRTTYADSVKGRFTISRDNAKNTVYLQMNSLKPEDTAVYYCAKAWPDHWYSRYDYWGQGTQVTVSS | low polyreactivity
17 | QVQLVESGGGLVQAGGSLRLSCAASGSIFFWYTMGWYRQAPGKERDLVATITGSGSSTTYADSVKGRFTISRDNAKNTVYLQMNSLKPEDTAVYSCAAADIIDHSFPYDYWGQGTQVTVSS | low polyreactivity
18 | QVQLVESGGGLVQAGGSLRLSCAASGSIFFWYTRGWYRQEPGKERQLVATITGSGSSTTYADSVKGRFTISRDNAKNSVYLQMNSLKPEDTAVYYCAAADIIDHSFPYDYWGQGTQVTVSS | low polyreactivity
19 | QVQLVESGGGLVQAGGSLRLSCAASGSIFFYNAMGWYRQAPGKERELVAAISRGGSTYYADSVKGRFTISRDNAKNTVYLQMNSLKPEDTAVYYCAVQRRRNSNVLFDYWGQGTQVTVSS | high polyreactivity
20 | QVQLVESGGGLVQAGGSLRLSCAASGSIFFYNTMGWYRQARGKERELVATINSDDSTYYADSVKGGFTISRDNAKNTVYIQMNSLKPEDTAVYYCNVRVKGGKLVAYDYWGQGTQVTLSS | low polyreactivity
21 | QVQLVESGGGLVQAGGSLRLSCAASGSIFFYYAMGWYRQAPGKERELVAAINSDGSTNYADSVKGRFTISRDNAKNTVYLQMNSLKPEDTAVYYCAAYDEYYGYDYWGQGTQVTVSS | low polyreactivity
22 | QVQLVESGGGLVQAGGSLRLSCAASGSIFFYYAMGWYRQAPGKERELVAAISYSDGTTYYADSVKGRFTISRDNAKNTVYLQMNSLKPEDTAVYYCAADLWVGLVSLWDGYVEYDYWGQGTQVTVSS | low polyreactivity

Row | Sequence | polyreactivity (PSR sort gate)
23 | QVQLVESGGGLVQAGGSLRLSCAASGSIFGANTMGWYRQAPWKERELVAGITSRARTYYADSVKGRFTISRDNAKNTVYLQMNSLKPEDTAVYYCAAKYAWRRYGYWGQGTQVTVSS | high polyreactivity
24 | QVQLVESGGGLVQAGGSLRLSCAASGSIFGAYAMGWYRQAPGKERELVAAINYGGATTYYADSVKGRFTISRDNAKNTVYLQMNSLKPEDTAVYYCAADYLYAYGDVAVVYGWYAYYYWGQGTQVTVSS | low polyreactivity
25 | QVQLVESGGGLVQAGGSLRLSCAASGSIFGAYTMRWYRQAPGKERELVAAITGGGITNYADSVKGRFTISRDNAKNTVYLQMNSLKPEDTAVYYCNAGYPPQTVVVGYDYWGQGTQVTVSS | low polyreactivity
26 | QVQLVESGGGLVQAGGSLRLSCAASGSIFGDNAMGWYRQAPGKERELVAAINYNGGRTYYADSVKGRFTISRDNAKNTVYLQMNSLKPEDTAVYYCAKDNYQAPVQQYPFDYWGQGTQVTVSS | low polyreactivity
27 | QVQLVESGGGLVQAGGSLRLSCAASGSIFGDNAMGWYRQAPGKERELVAAISIVGSTSYADSVKGRFTISRDNAKNTVYLQMNSLKPEDTAVYDCAAEIVRSDTGFDYWGQGTQVTVSS | low polyreactivity
28 | QVQLVESGGGLVQAGGSLRLSCAASGSIFGDNAMGWYRQAPRKERELVAVISSSGSTYYADSVKGRFTISRDNAKNTVFLQMNSLKPEDSAVYYCNAYQFDWYEEYYYWGQGTQVTVSS | low polyreactivity
29 | QVQLVESGGGLVQAGGSLRLSCAASGSIFGDYAMGWYRQAPGKEREFVAGITRRGGRTYYADSVKGRFTISRDNAKNTVYLQMNSLKPEDTAVYYCNAVYSSSLRSKYDYWGQGTQVTVSS | high polyreactivity
30 | QVQLVESGGGLVQAGGSLRLSCAASGSIFGDYAMGWYRQAPGKERELVATITWIGGSTYYADSVKGRFTISRDNAKNTVYLQMNSLKPEDTAVYYCAATKYVDVKYYYWGQGTQVTVSS | low polyreactivity
31 | QVQLVESGGGLVQAGGSLRLSCAASGSIFGDYAMGWYRQAPVKERELVATITWIGGSTYYADSVKGRFTISRDNAKNTVYLQMNSLTPEDTAVYYCAATKYVDVKYYYWGQGTQVTVSS | low polyreactivity
32 | QVQLVESGGGLVQAGGSLRLSCAASGSIFGDYVMGWYRQAPGKERELVAAINRGGSTYYADSVKGRFTISRDNAKNTVYLQMNSLKPEDTALYYCAAGYPSWYYGYPYDSWGQGTQVTVSS | low polyreactivity
33 | QVQLVESGGGLVQAGGSLRLSCAASGSIFGEIAMGWYRQAPGKERELVAAISSGVSTNYADSVKGRFTISRDNAKNTVYLQMNSLKPEDTAVYYCAVDSLPNSPYDYWGHGTQVTVSS | low polyreactivity
34 | QVQLVESGGGLVQAGGSLRLSCAASGSIFGENAMGRYRQAPGKERELVAAITSGGSTDYADSVKGRFTISRDNAKNTVYLQMNSLKPEDTAVYYCAASGRVGPGYWYDSWGQGTQVTVSS | low polyreactivity
35 | QVQLVESGGGLVQAGGSLRLSCAASGSIFGENAMGWYRQAPGKERELVASITESGVTTYYADSVKGRFTISRDNAKNTVYLQMNSLKPEDTAVYYFWGQGTQVTVSS | low polyreactivity
36 | QVQLVESGGGLVQAGGSLRLSCAASGSIFGEYTMGWYRPAPGKERELVAAIRSGGDTYYADSVKGRFTISRDNAKNTVYLQMNSLKPEDTAVYYCNAYWVRHYIMDYWGQGTQVTVSS | low polyreactivity
37 | QVQLVESGGGLVQAGGSLRLSCAASGSIFGFYAMGWYIQAPGKERELVAAISDSGDSTYYADSVKGRFTISRDNAKNTVYLQMNSLKPEDTAVYYCATDGRSNYYWGDYWGQGTHVTVSS | low polyreactivity
38 | QVQLVESGGGLVQAGGSLRLSCAASGSIFGFYAMGWYRQAPGKERELVAAITSGDSTHYADSVKGRFTISRDNAKNTVYLQMNSLKPEDTAVYYCAASAPYRYYRSAYYYWGQGTQVTVSS | low polyreactivity
39 | QVQLVESGGGLVQAGGSLRLSCAASGSIFGFYGMGWYRQAPGKERELVAAISSRGGSTYYADSVKGRFTISRDNAKNTVYLQMNSLKPEDTAVYYCATERERTMGYWGQGTQVTVSW | high polyreactivity
40 | QVQLVESGGGLVQAGGSLRLSCAASGSIFGGNAMGWSRQAPGKERELVAVITSGGSTYYADSVKGRFTISRDNAKNTVYLQMNSLKPEDTAVYYCNVDRLARKAHYDYWGQGTQVTVSS | high polyreactivity
41 | QVQLVESGGGLVQAGGSLRLSCAASGSIFGGNAMGWYRPAPGTVRELVAAITSSGGSTYYADSVKGRFTMSRDNAKNTVYLQMNSLNPEDTAVYYSNKAYPGRTYDYWGQGTQVTVSS | high polyreactivity
42 | QVQLVESGGGLVQAGGSLRLSCAASGSIFGGNAMGWYRQAPGKERELVATIDFSGTSTYYADSVKGRFTISRDHAKKTVYLQMHSLKPEDTSVSSCNARSYPDYIYWSQRYDYDFWGQGTQVTVSS | low polyreactivity
43 | QVQLVESGGGLVQAGGSLRLSCAASGSIFGGNAMGWYRQAPGKETELVATITVRGGSTYYADSVKGRFRISRDNAKNSVYLQMNSLKPEDTAVYYCATEEVSRYRYGYWGQGTQVTVSS | low polyreactivity
